{
  "source": "paper PMC10635833",
  "about": "“A MEC-2/stomatin condensate liquid-to-solid phase transition controls neuronal mechanotransduction during touch sensing” (Nature Cell Biology, 2023)",
  "proteins": {"B1": {"name": "MEC-2 C-terminal domain R385H mutant (domain or fragment, C. elegans, UniProt Q27433 371-481, looked up)", "chain": "PPKVEEPPSLPKKIHSCCLYKYPDWVQGMVGSEGGGGHGHSHGGGGGGLGSSQGAFHPSQAGSGPSTTTTSGRPLLRSMREAQFHSAAPPISAPNQSQTSVSQLDPALLIR", "notes": "MEC-2 (stomatin), C. elegans, C-terminal domain, residues 371-481 as for the wild-type construct, with R385H (allele u26); also called MEC-2 (R385H); u26 allele"}},
  "molecular_target": "the molecule itself",
  "experiment": "NMR signal intensities and chemical shifts (1H-15N correlation spectra) of the mutant against the wild type; per-residue chemical shift difference and intensity ratio between MEC-2 C-terminal domain WT and R385H, no partner added",
  "data": [
    {"protein": "B1", "values": [
      {"measurement": "binding result", "result": "binds"}
    ]}
  ]
}
